Assay results as given in patent US9790262B2, “Compositions comprising glucagon analogs and methods of making and using the same” (LONGEVITY BIOTECH, INC., priority 2011, dated 2017).
Non-standard residues stand in square brackets, D forms with d. No end group written: not given here. APC = 3-aminopyrrolidine-4-carboxylic acid (cyclic beta amino acid); ACPC = 2-aminocyclopentanecarboxylic acid (cyclic beta amino acid); Aib = CC(C)(N)C(=O)O

How the values were obtained:
[1] = Stability in human liver microsomes; conditions: for % of mass remaining in solution: 0.5 mg/mL human liver microsomes, 1 μM, 1 mM NADPH, 37° C.
Method: Human liver microsomes were prepared by Absorption Systems. A reaction mixture, minus NADPH, was prepared as described below. […] In parallel, a […]. The test compound was added into the reaction mixture (0.5 mg/mL human liver microsomes; 100 mM potassium phosphate; 5 mM Magnesium chloride) at a final concentration of 1 μM. An aliquot of the reaction mixture (without cofactor) was incubated in a shaking water bath at 37° C. for 3 minutes. […] The samples were then mixed and centrifuged to precipitate microsomal proteins. […] A thermo BDS Hypersil C18 column (30×2.0 mm; 3 μm) was used for chromatography at 300 μL/minute with an aqueous reservoir of 90% water and 10% buffer and an organic reservoir of 90% acetonitrile with 10% buffer (each 25 mM ammonium formate buffer at pH of 3.5). Test compound samples were analyzed by orbitrap. The peak area response ratio to internal standard (PARR) of the compounds at 10, 20, 30, and 60 minutes was compared to the PARR at time 0 to determine the percent of test compound remaining at each timepoint. After the final time point, fluorimetry is used to confirm the addition of NADPH to the reaction mixture. Half-life was normalized of control using internal acceptance criteria.
The mass spectrometry measurements of compound were taken at 0, 10, 20, 30, and 60 minutes after incubation of the compound with human liver microsomes at […] in solution at 37° C.
Intrinsic clearance (CLint) was calculated based upon CLint=k/P, where k is the elimination rate constant and P is the protein concentration in the incubation.

[2] = Stability in human plasma; format: in vitro ADME
Method: Studies of the 2010 peptide were carried out in human plasma. All plasma was obtained from Bioreclamation and collected on sodium heparin. DMSO stocks were first prepared for the test compounds. Aliquots of the DMSO solutions were dosed into 1 mL of plasma, which had been pre-warmed to 37° C., at a final test compound concentration of 1 μM. The vials were kept in a benchtop Thermomixer® for the duration of the experiment. Aliquots (100 μL) were taken at each timepoint (0, 15, 30, 60, and 120 minutes) and added to 96-well plates which had been pre-filled with 300 μL of acetonitrile. Samples were stored at 4° C. until the end of the experiment. After the final timepoint was sampled, the plate was mixed and then centrifuged at 3,000 rpm for 10 minutes. Aliquots of the supernatant were removed, diluted 1:1 into distilled water, and analyzed by LC-MS/MS.
Below is a table of data describing the stability of compounds exposed to human plasma with aliquot of compound dissolved in DMSO solution at 37° C. The pH of the plasma solution was adjusted to 7.4 and single replicants of aliquot were taken at 0, 15, 30, 60 and 120 minutes. LC-MS/MS was used to determine the percent mass of compound remaining in solution (% remaining).

[3] = biological target: T1, GIP receptor (GIPR) (Homo sapiens, UniProt P48546); experiment: cAMP Hunter agonist assay (DiscoveRx HitHunter cAMP XS+), GIPR cells; format: cell-based; conditions: read-out: Max Response
T1 sequence (P48546 22-466): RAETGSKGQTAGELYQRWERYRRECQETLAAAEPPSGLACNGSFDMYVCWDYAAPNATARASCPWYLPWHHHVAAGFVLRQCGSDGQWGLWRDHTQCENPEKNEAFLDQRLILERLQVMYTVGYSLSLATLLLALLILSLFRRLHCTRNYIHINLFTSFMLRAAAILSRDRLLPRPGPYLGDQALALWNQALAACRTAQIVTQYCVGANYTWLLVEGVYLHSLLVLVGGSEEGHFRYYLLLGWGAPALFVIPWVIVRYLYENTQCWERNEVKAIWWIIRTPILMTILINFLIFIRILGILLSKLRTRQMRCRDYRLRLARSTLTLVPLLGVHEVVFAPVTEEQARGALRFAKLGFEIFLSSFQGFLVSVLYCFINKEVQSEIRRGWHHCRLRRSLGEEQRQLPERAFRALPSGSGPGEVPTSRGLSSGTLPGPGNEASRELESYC
Method: Once it was established that the cells were healthy and growing normally, cells were passaged from flasks using cell dissociation reagent buffer and seeded into white walled clear bottom 384-well microplates for compound profiling. For profiling, cells were seeded at a density of 10,000 cells per well in a total volume of 20 μL and were allowed to adhere and recover overnight prior to compound addition. cAMP modulation was determined using the DiscoveRx HitHunter cAMP XS+ assay.
For profiling compound in agonist mode, the cells were incubated in the presence of compound at 37° C. for 30 minutes. […] After appropriate compound incubation, assay signal was generated through incubation with DiscoverX lysis cocktail according to the manufacturers standard protocol. Dose curves were plotted using GraphPad Prism or Activity Base. Percentage activity is calculated using the following formula: % Activity=100%×(mean RLU of test sample−mean RLU of vehicle control)/(mean RLU of MAX control−mean RLU of vehicle control).

[4] = biological target: T2, GIP receptor (UniProt P48546 22-466, limits assumed); experiment: cell-based or functional assay
T2 sequence (looked up): T1 sequence (P48546 22-466)

[5] = biological target: GLP-1 receptor (UniProt P43220 24-463, limits assumed); experiment: cell-based or functional assay

CC[C@H](C)[C@H](NC(=O)[C@H](CO)NC(=O)[C@H](Cc1ccc(O)cc1)NC(=O)[C@H](CC(=O)O)NC(=O)[C@H](CO)NC(=O)[C@@H](NC(=O)[C@H](Cc1ccccc1)NC(=O)[C@@H](NC(=O)CNC(=O)[C@H](CCC(=O)O)NC(=O)C(C)(C)NC(=O)[C@@H](N)Cc1ccc(O)cc1)[C@@H](C)O)[C@@H](C)O)C(=O)N[C@@H](Cc1ccc(O)cc1)C(=O)N[C@@H](CC(C)C)C(=O)N[C@@H](CC(=O)O)C(=O)N[C@@H](CCCCN)C(=O)N[C@@H](CCC(N)=O)C(=O)N[C@@H](C)C(=O)N[C@@H](C)C(=O)NC(C)(C)C(=O)N[C@@H](CCC(=O)O)C(=O)N[C@@H](Cc1ccccc1)C(=O)N[C@H](C(=O)N[C@@H](CC(N)=O)C(=O)N[C@@H](Cc1c[nH]c2ccccc12)C(=O)N[C@@H](CC(C)C)C(=O)N[C@@H](CC(C)C)C(=O)N[C@@H](C)C(=O)NCC(N)=O)C(C)C [compound 2000, YBEGT FTSDY SIYLD KQAAB EFVNW LLAG]
% of mass remaining in solution ([1]; 0 mins.): 100%
half-life ([1]; human, microsomes): 58 min
microsomal CLint ([1]; human, microsomes): 24 µL/min/mg
remaining at 10 min, 1 μM ([1]; human, microsomes): 95%
remaining at 20 min, 1 μM ([1]; human, microsomes): 78%
remaining at 0.5 h, 1 μM ([1]; human, microsomes): 72%
remaining at 1 h, 1 μM ([1]; human, microsomes): 50%
% of mass remaining in solution ([2]; 0 mins., 1 μM, 37° C., pH 7.4): 100%
remaining at 0.25 h, 1 μM ([2]; plasma (sodium heparin), 15 mins., 1 μM, 37° C., pH 7.4, read-out: % of mass remaining in solution): 101%
remaining at 0.5 h, 1 μM ([2]; plasma (sodium heparin), 30 mins., 1 μM, 37° C., pH 7.4, read-out: % of mass remaining in solution): 99%
remaining at 1 h, 1 μM ([2]; plasma (sodium heparin), 60 mins., 1 μM, 37° C., pH 7.4, read-out: % of mass remaining in solution): 95%
remaining at 2 h, 1 μM ([2]; plasma (sodium heparin), 120 mins., 1 μM, 37° C., pH 7.4, read-out: % of mass remaining in solution): 98%
half-life ([2]; read-out: serum-half lives): > 120 min

CC[C@H](C)[C@H](NC(=O)[C@H](Cc1ccccc1)NC(=O)[C@H](CCC(=O)O)NC(=O)[C@H](CCCCN)NC(=O)[C@H](C)NC(=O)[C@H](C)NC(=O)[C@H](CCC(N)=O)NC(=O)CNC(=O)[C@H](CCC(=O)O)NC(=O)[C@H](CC(C)C)NC(=O)[C@H](Cc1ccc(O)cc1)NC(=O)[C@H](CO)NC(=O)[C@H](CO)NC(=O)[C@@H](NC(=O)[C@H](CC(=O)O)NC(=O)[C@H](CO)NC(=O)[C@@H](NC(=O)[C@H](Cc1ccccc1)NC(=O)[C@@H](NC(=O)CNC(=O)[C@H](CCC(=O)O)NC(=O)[C@H](C)NC(=O)[C@@H](N)Cc1c[nH]cn1)[C@@H](C)O)[C@@H](C)O)C(C)C)C(=O)N[C@@H](C)C(=O)N[C@@H](Cc1c[nH]c2ccccc12)C(=O)N[C@@H](CC(C)C)C(=O)N[C@H](C(=O)N[C@@H](CCCCN)C(=O)NCC(=O)N[C@@H](CCCNC(=N)N)C(N)=O)C(C)C [GLP1]
Emax [3]: 2.66%

C[C@]12CC[C@H]3[C@@H](CCC4=CC(=O)CC[C@@]43C)[C@@H]1CC[C@@H]2O [Testosterone, testosterone]
% of mass remaining in solution ([1]; 0 mins.): 100%
% of mass remaining in solution ([1]; 60 mins.): 4.8%
remaining at 10 min, 1 μM ([1]; human, microsomes): 53%
remaining at 0.5 h, 1 μM ([1]; human, microsomes): 13%

wild-type GLP-1 (from UniProt P01275 92-128) (ligand)
cAMP agonist: Max Response [4]: 2.66%

B1: 2005 (peptide)
peptide: YXEGTFTSDYSIYXDKXAAXXFVXWLLXG
modifications: B = alpha-aminoisobutyric acid (Aib) at positions 2 and 20; alpha-to-beta3 amino acid replacement(s) at the bold and underlined position(s) of the printed sequence, which this text does not show
cAMP agonist: Curve Bottom [4]: -2.6%
cAMP agonist: Curve Top [4]: 96.3%
cAMP agonist: Max Response [4]: 99.2%
cAMP agonist: Curve Bottom [5]: 1.3%
cAMP agonist: Curve Top [5]: 91.1%
cAMP agonist: Max Response [5]: 95.7%

B2: 2004 (peptide)
peptide: YXEGTFTSDYSXYLXKQAXXEXVNWXLAX
modifications: B = alpha-aminoisobutyric acid (Aib) at positions 2 and 20; alpha-to-beta3 amino acid replacement(s) at the bold and underlined position(s) of the printed sequence, which this text does not show
cAMP agonist: Curve Bottom [4]: -0.8%
cAMP agonist: Curve Top [4]: 99.1%
cAMP agonist: Max Response [4]: 99.1%
cAMP agonist EC50 (RC50 (uM)) [5]: > 1 µM
cAMP agonist: Max Response [5]: 2.68%

Y[Aib]EGTFTSDYSIYLDK[ACPC]AA[Aib][ACPC]FV[APC]WLL[ACPC]G [2010]
cAMP agonist: Curve Bottom [4]: -0.3%
cAMP agonist: Curve Top [4]: 85.5%
cAMP agonist: Max Response [4]: 96.9%
cAMP agonist: Curve Bottom [5]: 0.4%
cAMP agonist: Curve Top [5]: 82.4%
cAMP agonist: Max Response [5]: 82.1%

Y[Aib]EGTFTSDYSIYLD[APC]QA[ACPC][Aib]EF[ACPC]NW[ACPC]LAG [2008]
cAMP agonist: Curve Bottom [4]: -0.6%
cAMP agonist: Curve Top [4]: 82.8%
cAMP agonist: Max Response [4]: 82.2%
cAMP agonist: Curve Bottom [5]: 0.9%
cAMP agonist: Curve Top [5]: 84.4%
cAMP agonist: Max Response [5]: 84.5%

B3: 2001 (peptide)
peptide: YXEGTFTSDYSXYLDXQAXXEFXNWXLAG
modifications: B = alpha-aminoisobutyric acid (Aib) at positions 2 and 20; alpha-to-beta3 amino acid replacement(s) at the bold and underlined position(s) of the printed sequence, which this text does not show
cAMP agonist EC50 (RC50 (uM)) [4]: > 1 µM
cAMP agonist: Max Response [4]: 16.5%
cAMP agonist EC50 (RC50 (uM)) [5]: > 1 µM
cAMP agonist: Max Response [5]: 36.7%
